Measured values taken from patent publication US12115264B2, “Sterilization and filtration of peptide compositions” (3-D Matrix, Ltd., priority 2014, dated 2024).
Where no end group is shown, it is not given here.

How the values were obtained:
Format in all cases: physicochemical
[1] = Rheological properties of peptide solutions at selected concentrations; conditions: for Loss Modulus (G″) / Storage Modulus (G′): at 1 Pa of oscillation stress; for Max. Viscosity (max η′): from viscosity plots at the range of measured stress
Procedure: Rheological properties were determined for a variety of peptide solutions. […] For example 2% KLD12 (SEQ ID NO:2), 2.5% KLD12 (SEQ ID NO:2), and 1.5% IEIK13 (SEQ ID NO:3) solutions have 2, 3.4, and 3.2 times higher maximum viscosities than 2.5% RADA16 (SEQ ID NO:1), respectively.

[2] = Time sweep tests (rheological strength) before and after autoclave treatment; conditions: time sweep test
Procedure: Rheological properties of certain peptide compositions were determined before and after autoclaving.

[3] = Shear flow test (rheometer DHR-1, 20 mm plates); conditions: for yield stress (shear flow test): shear rate 0.003 to 1000
Procedure: Shear flow tests were performed on peptide solutions using a rheometer (DHR-1, TA Instruments) with 20 mm plates. Results are shown in FIG. 9 for 2.5% RADA16 (SEQ ID NO:1) solutions and FIG. 10 for 1.5% IEIK13 (SEQ ID NO:3) solutions. […] That is, as shear rate increased, their viscosities were dramatically dropped. […] The yield stress was about 40 Pa for 2.5% RADA16 (SEQ ID NO:1) solution and about 60 Pa for 1.5% IEIK13 (SEQ ID NO:3) solution.

[4] = Storage modulus recovery after injection through 30-gauge needle
Procedure: RADA16 (SEQ ID NO:1) was injected through 30-gauge needle so that applied shear stress reduced stiffness of the peptides. The measurements were started 1 minute after the injection.
KLD12 (SEQ ID NO:2) was injected through 30-gauge needle so that the applied shear stress reduced stiffness of the peptides. The measurements were started 1 minute after the injection.
IEIK13 (SEQ ID NO:3) was injected through 30-gauge needle so that the applied shear stress reduced stiffness of the peptides. The measurements were started 1 minute after the injection.
The percentages of recovery back to the original storage modulus at 1 min and 20 min after injection peptide compositions through a 30 gauge needle are listed in Table 2. The recovery rate of IEIK13 (specifically, of a […]; SEQ ID NO:3) was the fastest among the peptide solutions, showing 100% recovery to the original storage modulus in 20 min. […] In some non-limiting embodiments, it may take about 12 to 48 hours for full recovery to an original modulus after passage through a needle (e.g., injection).
Rheological measurements were performed for RADA16 (SEQ ID NO:1) and IEIK13 (SEQ ID NO:3) solutions after injecting them through 30 gauge needles. […] The results are shown in FIG. 6 for RADA16 (SEQ ID NO:1), FIG. 7 for KLD12 (SEQ ID NO:2), and FIG. 8 for IEIK13 (SEQ ID NO:3).

[5] = Apparent viscosity change after passage through membrane shear-thinning unit (container-inversion test)
Text: The top row includes pictures of 2.5% KLD12 (SEQ ID NO:2). The bottom row includes pictures of 1.5% IEIK13 (SEQ ID NO:3). The solutions in the most left column stay on the top of the vials. The solutions in the most right column (after applying shear stress) have low viscosity, so that most materials are located at the bottom of vials.
To examine the effect of pore size in the shear-thinning unit on viscosity change of viscous peptide solutions, 2.5% KLD12 (SEQ ID NO:2) and 1.5% IEIK13 (SEQ ID NO:3) solutions were passed through selected pore sizes, and their apparent viscosity changes were evaluated. 2.5% KLD12 (SEQ ID NO:2) solutions passed through the shear-thinning unit with the pore sizes of 41 μm, 20 μm, and 5 μm.

[6] = 2.5%, 1 min after injection through 30-gauge needle
[7] = 2.5%, 20 min after injection through 30-gauge needle
[8] = 1%, 1 min after injection through 30-gauge needle
[9] = 1%, 20 min after injection through 30-gauge needle

Row | Substance | Yield Stress ([1]; Conc. 1%) | Loss Modulus (G″) ([1]; Conc. 1%) | Storage Modulus (G′) ([1]; Conc. 1%) | Max. Viscosity (max η′) ([1]; Conc. 1%) | Yield Stress ([1]; Conc. 1.5%) | Loss Modulus (G″) ([1]; Conc. 1.5%) | Storage Modulus (G′) ([1]; Conc. 1.5%) | Max. Viscosity (max η′) ([1]; Conc. 1.5%) | Loss Modulus (G″) ([1]; Conc. 2%) | Storage Modulus (G′) ([1]; Conc. 2%) | Yield Stress ([1]; Conc. 2.5%) | Loss Modulus (G″) ([1]; Conc. 2.5%) | Storage Modulus (G′) ([1]; Conc. 2.5%) | Max. Viscosity (max η′) ([1]; Conc. 2.5%) | rheological strength after autoclaving versus non-autoclaved [2] | Storage modulus [4, 6] | Storage modulus [4, 7] | Storage modulus ([4]; 2.5%, Before injection) | Yield Stress ([1]; Conc. 2%) | Max. Viscosity (max η′) ([1]; Conc. 2%) | other results
1 | Ile-Glu-Ile-Lys-Ile-Glu-Ile-Lys-Ile-Glu-Ile-Lys-Ile [IEIK13] | 39.8 Pa | 77 Pa | 719 Pa | 12.9 Pa · s | 50.1 Pa | 94 Pa | 1092 Pa | 18.0 Pa · s | 138 Pa | 1708 Pa | 100 Pa | 174 Pa | 2213 Pa | 40.2 Pa · s | almost identical rheological strength | 632 Pa | 2248 Pa | 2213 Pa | – | – | times higher maximum viscosity than 2.5% RADA16 ([1]; 1.5% solution): 3.2 times; flow behaviour with increasing shear rate ([3]; 1.5% solution): typical shear thinning properties; yield stress (shear flow test) ([3]; 1.5% solution): about 60 Pa; apparent viscosity change after shear-thinning unit ([5]; 1.5% solution, membrane with a pore size of 5 μm): reduced significantly
2 | Arg-Ala-Asp-Ala-Arg-Ala-Asp-Ala-Arg-Ala-Asp-Ala-Arg-Ala-Asp-Ala [RADA16] | 15.9 Pa | 12 Pa | 74 Pa | 2.3 Pa · s | 20.0 Pa | 30 Pa | 158 Pa | 3.4 Pa · s | 39 Pa | 217 Pa | 50.1 Pa | 53 Pa | 352 Pa | 5.6 Pa · s | dramatic decrease of rheological strength | 67 Pa | 196 Pa | 352 Pa | 31.6 Pa | 4.0 Pa · s | flow behaviour with increasing shear rate ([3]; 2.5% solution): typical shear thinning properties; yield stress (shear flow test) ([3]; 2.5% solution): about 40 Pa; Storage modulus [4, 8]: 6.8 Pa; Storage modulus [4, 9]: 40 Pa; Storage modulus ([4]; 1%, Before injection): 74 Pa
3 | KLDLKLDLKLDL [KLD12, self-assembling peptide with repeats of KLDL, tested as solutions of 1 to 2.5%] | 25.1 Pa | 25 Pa | 140 Pa | 2.0 Pa · s | 39.8 Pa | 46 Pa | 292 Pa | 7.1 Pa · s | 63 Pa | 573 Pa | 100 Pa | 93 Pa | 846 Pa | 19.0 Pa · s | – | 57 Pa | 196 Pa | 846 Pa | 79.4 Pa | 11.0 Pa · s | times higher maximum viscosity than 2.5% RADA16 ([1]; 2% solution): 2 times; times higher maximum viscosity than 2.5% RADA16 ([1]; 2.5% solution): 3.4 times; Storage modulus [4, 8]: 0.68 Pa; Storage modulus [4, 9]: 59 Pa; Storage modulus ([4]; 1%, Before injection): 140 Pa; apparent viscosity change after shear-thinning unit ([5]; 2.5% solution, pore size of 120 μm): remained too viscous to flow down; apparent viscosity change after shear-thinning unit ([5]; 2.5% solution, pore sizes of 41 μm, 20 μm, and 5 μm): decreased enough to flow down
